For 14 proteins, Km results are on record in patent publication US6987008B1, “Variant nucleoside-5′-phosphate producing enzyme” (priority 1999, dated 2006).

Substitutions are numbered along the chain they refer to. Names may count otherwise.

Common to all, as to type: biochemical, Escherichia blattae
Common to all, as to settings: other: transphosphorylation, 100 mM sodium pyrophosphate, 10–100 mM inosine, pH 4, 30° C., 10 min, cell free extract, Hanes-Woolf

Substrate in data set [1]: OC[C@H]1O[C@@H](n2cnc3c(O)ncnc32)[C@H](O)[C@@H]1O
Nature of the data set: Km for inosine, transphosphorylation by S72E/G74D/I153T mutant EB-AP. As for the experimental part:
(§1) In order to construct a mutant EB-AP for expression in Escherichia coli JM109, a plasmid pEPI340 containing a gene for G74D/I153T mutant EB-AP was used as a template for site-directed mutagenesis utilizing PCR. The nucleotide sequences of these plasmids pEPI305 and pEPI340 are disclosed in Japanese Patent Laid-open (Kokai) No. 10-201481/1998, paragraph (0143), Table 12. […]
(§2) Then, the Km value for inosine in the transphosphorylation reaction by each 3-residue replaced mutant EB-AP was measured under the following conditions. […] After 200 μl of 1 N hydrochloric acid was added to stop the reaction, the precipitates were removed by centrifugation, and the produced 5′-inosinic acid was quantified. The Km value was calculated by the Hanes-Woolf plotting.
(§3) 5′-Inosinic acid was analyzed by high performance liquid chromatography (HPLC) under the following conditions. • Column: Cosmosil 5C18-AR (4.6×150 mm), produced by Nakarai Tesque • Mobile phase: 5 mM potassium phosphate buffer (pH 2.8)/methanol=95/5 • Flow rate: 1.0 ml/min • Temperature: room temperature • Detection: UV 245 nm

Substrate in data set [2]: OC[C@H]1O[C@@H](n2cnc3c(O)ncnc32)[C@H](O)[C@@H]1O
Nature of the data set: Km for inosine, transphosphorylation by S72F/G74D/I153T mutant EB-AP. The protocol: as §1, §2, §3

Substrate in data set [3]: OC[C@H]1O[C@@H](n2cnc3c(O)ncnc32)[C@H](O)[C@@H]1O
Nature of the data set: Km for inosine, transphosphorylation by A72E/L140F/10-residue replaced mutant EB-AP.

Substrate in data set [4]: OC[C@H]1O[C@@H](n2cnc3c(O)ncnc32)[C@H](O)[C@@H]1O
Nature of the data set: Km for inosine, transphosphorylation by S72W/G74D/I153T mutant EB-AP. As for the experimental part: as §1, §2, §3

Substrate in data set [5]: OC[C@H]1O[C@@H](n2cnc3c(O)ncnc32)[C@H](O)[C@@H]1O
In words: Km for inosine, transphosphorylation by S72T/G74D/I153T mutant EB-AP. The protocol: as §1, §2, §3

Substrate in data set [6]: OC[C@H]1O[C@@H](n2cnc3c(O)ncnc32)[C@H](O)[C@@H]1O
Nature of the data set: Km for inosine, transphosphorylation by S72D/G74D/I153T mutant EB-AP. As for the experimental part:
as §1, §2, §3

Substrate in data set [7]: OC[C@H]1O[C@@H](n2cnc3c(O)ncnc32)[C@H](O)[C@@H]1O
In words: Km for inosine, transphosphorylation by S72V/G74D/I153T mutant EB-AP. As for the experimental part:
as §1, §2, §3

Substrate in data set [8]: OC[C@H]1O[C@@H](n2cnc3c(O)ncnc32)[C@H](O)[C@@H]1O
In words: Km for inosine, transphosphorylation by A72E/L140K/10-residue replaced mutant EB-AP.

Substrate in data set [9]: OC[C@H]1O[C@@H](n2cnc3c(O)ncnc32)[C@H](O)[C@@H]1O
In words: Km for inosine, transphosphorylation by 10-residue replaced mutant EB-AP.

Substrate in data set [10]: OC[C@H]1O[C@@H](n2cnc3c(O)ncnc32)[C@H](O)[C@@H]1O
Nature of the data set: Km for inosine, transphosphorylation by A72F/10-residue replaced mutant EB-AP. As for the experimental part:
(§4) Then, the Km value for inosine in the transphosphorylation reaction by each 3-residue replaced mutant EB-AP was measured under the following conditions. A reaction mixture (1 ml) containing 100 mM sodium pyrophosphate, 100 mM acetate buffer (pH 4.0), 10–100 mM inosine and 100 μl of the cell free extract was incubated at pH 4 and 30° C. for 10 minutes. After 200 μl of 1 N hydrochloric acid was added to stop the reaction, the precipitates were removed by centrifugation, and the produced 5′-inosinic acid was quantified. The Km value was calculated by the Hanes-Woolf plotting.
as §3
(§5) The S72F mutation that decreased the Km value in the highest degree and the S72E mutation that enhanced the activity in the highest degree in Example 12 were introduced into the 10-residue replaced mutant EB-AP. Since Ser72 was replaced with Ala in the 10-residue replaced mutant EB-AP, the A72F and A72E mutations were actually introduced. […] Furthermore, transphosphorylation activity and reaction rate constant were measured by the method described in Example 12. […]

Substrate in data set [11]: OC[C@H]1O[C@@H](n2cnc3c(O)ncnc32)[C@H](O)[C@@H]1O
Nature of the data set: Km for inosine, transphosphorylation by S72Y/G74D/I153T mutant EB-AP. As for the experimental part:
as §1, §2, §3

Substrate in data set [12]: OC[C@H]1O[C@@H](n2cnc3c(O)ncnc32)[C@H](O)[C@@H]1O
Nature of the data set: Km for inosine, transphosphorylation by A72E/10-residue replaced mutant EB-AP. As for the experimental part: as §4, §3, §5

Substrate in data set [13]: OC[C@H]1O[C@@H](n2cnc3c(O)ncnc32)[C@H](O)[C@@H]1O
In words: Km for inosine, transphosphorylation by S72M/G74D/I153T mutant EB-AP. As for the experimental part:
as §1, §2, §3

Substrate in data set [14]: OC[C@H]1O[C@@H](n2cnc3c(O)ncnc32)[C@H](O)[C@@H]1O
In words: Km for inosine, transphosphorylation by G74D/I153T mutant EB-AP.

B1: Escherichia blattae acid phosphatase (EB-AP, SEQ ID NO: 2 / 124) mutant S72E/G74D/I153T (Shimwellia blattae; G92D/I171T/S90E) (protein)
chain: LVATGNDTTTKPDLYYLKNSEAINSLALLPPPPAVGSIAFLNDQAMYEQGRLLRNTERGKLAAEDANLSEGDVANAFSGAFGSPITEKDAPALHKLLTNMIEDAGDLATRSAKDHYMRIRPFAFYGVSTCNTTEQDKLSKNGSYPSGHTSTGWATALVLAEINPQRQNEILKRGYELGQSRVICGYHWQSDVDAARVVGSAVVATLHTNPAFQQQLQKAKAEFAQHQKK
As for B1, the Km (as a rule, the substrate concentration at which the rate is half of its maximum) in data set [1] worked out at 40 mM.

B2: Escherichia blattae acid phosphatase (EB-AP, SEQ ID NO: 2 / 124) mutant S72F/G74D/I153T (Shimwellia blattae; G92D/I171T/S90F) (protein)
chain: B1 chain with E70F
Take B2: the Km in data set [2] is on record as 20 mM.

B3: Escherichia blattae acid phosphatase (EB-AP, SEQ ID NO: 2 / 124) mutant A72E/L140F/10-residue replaced (L63Q/A65Q/E66A/N69D/S71A/S72A/G74D/T135K/E136D/I153T … (protein)
chain: B1 chain with L61Q, A63Q, E64A, N67D, S69A, T133K, E134D, L138F
As to B3, in data set [3], the Km is listed as 9 mM.

B4: Escherichia blattae acid phosphatase (EB-AP, SEQ ID NO: 2 / 124) mutant S72W/G74D/I153T (Shimwellia blattae; G92D/I171T/S90W) (protein)
chain: B1 chain with E70W
Take B4: in [4], the Km came out at 30 mM.

B5: Escherichia blattae acid phosphatase (EB-AP, SEQ ID NO: 2 / 124) mutant S72T/G74D/I153T (Shimwellia blattae; G92D/I171T/S90T) (protein)
chain: B1 chain with E70T
As for B5, the Km in [5] amounted to 50 mM.

B6: Escherichia blattae acid phosphatase (EB-AP, SEQ ID NO: 2 / 124) mutant S72D/G74D/I153T (Shimwellia blattae; G92D/I171T/S90D) (protein)
chain: B1 chain with E70D
As to B6, in data set [6], the Km was found to be 33 mM.

B7: Escherichia blattae acid phosphatase (EB-AP, SEQ ID NO: 2 / 124) mutant S72V/G74D/I153T (Shimwellia blattae; G92D/I171T/S90V) (protein)
chain: B1 chain with E70V
Regarding B7, the Km in data set [7] came out at 40 mM.

B8: Escherichia blattae acid phosphatase (EB-AP, SEQ ID NO: 2 / 124) mutant A72E/L140K/10-residue replaced (L63Q/A65Q/E66A/N69D/S71A/S72A/G74D/T135K/E136D/I153T … (protein)
chain: B1 chain with L61Q, A63Q, E64A, N67D, S69A, T133K, E134D, L138K
On to B8, for which the Km in [8] stood at 78 mM.

B9: Escherichia blattae acid phosphatase (EB-AP, SEQ ID NO: 2 / 124) 10-residue replaced mutant L63Q/A65Q/E66A/N69D/S71A/S72A/G74D/T135K/E136D/I153T (Shimwellia … (protein)
chain: B1 chain with L61Q, A63Q, E64A, N67D, S69A, E70A, T133K, E134D
Consider B9, for which, in data set [9], the Km amounted to 40 mM.

B10: Escherichia blattae acid phosphatase (EB-AP, SEQ ID NO: 2 / 124) mutant A72F/10-residue replaced (L63Q/A65Q/E66A/N69D/S71A/S72A/G74D/T135K/E136D/I153T with … (protein)
chain: B1 chain with L61Q, A63Q, E64A, N67D, S69A, E70F, T133K, E134D
Take B10: the Km in data set [10] stood at 9 mM.

B11: Escherichia blattae acid phosphatase (EB-AP, SEQ ID NO: 2 / 124) mutant S72Y/G74D/I153T (Shimwellia blattae; G92D/I171T/S90Y) (protein)
chain: B1 chain with E70Y
In the case of B11, the Km in data set [11] is given as 25 mM.

B12: Escherichia blattae acid phosphatase (EB-AP, SEQ ID NO: 2 / 124) mutant A72E/10-residue replaced (L63Q/A65Q/E66A/N69D/S71A/S72A/G74D/T135K/E136D/I153T with … (protein)
chain: B1 chain with L61Q, A63Q, E64A, N67D, S69A, T133K, E134D
Consider B12, for which the Km in data set [12] is reported as 15 mM.

B13: Escherichia blattae acid phosphatase (EB-AP, SEQ ID NO: 2 / 124) mutant S72M/G74D/I153T (Shimwellia blattae; G92D/I171T/S90M) (protein)
chain: B1 chain with E70M
B13: in data set [13], the Km is reported as 46 mM.

B14: Escherichia blattae acid phosphatase (EB-AP, SEQ ID NO: 2 / 124) mutant G74D/I153T (Shimwellia blattae; G92D/I171T) (protein)
chain: B1 chain with E70S
Turning to B14, in data set [14], the Km worked out at 100 mM.
